Results taken from patent US20250296994A1 (SYSMEX, published 2025).

Experiments:
human Crtac1A = target: T1, human Crtac1A (human, UniProt Q9NQ79 28-661); assay: immunoprecipitation from human CSF and serum, then immunoblotting (Wes)
T1 construct: Recombinant protein (IB control sample) or native protein in human CSF and serum; also called rCrtac1A
T1 sequence: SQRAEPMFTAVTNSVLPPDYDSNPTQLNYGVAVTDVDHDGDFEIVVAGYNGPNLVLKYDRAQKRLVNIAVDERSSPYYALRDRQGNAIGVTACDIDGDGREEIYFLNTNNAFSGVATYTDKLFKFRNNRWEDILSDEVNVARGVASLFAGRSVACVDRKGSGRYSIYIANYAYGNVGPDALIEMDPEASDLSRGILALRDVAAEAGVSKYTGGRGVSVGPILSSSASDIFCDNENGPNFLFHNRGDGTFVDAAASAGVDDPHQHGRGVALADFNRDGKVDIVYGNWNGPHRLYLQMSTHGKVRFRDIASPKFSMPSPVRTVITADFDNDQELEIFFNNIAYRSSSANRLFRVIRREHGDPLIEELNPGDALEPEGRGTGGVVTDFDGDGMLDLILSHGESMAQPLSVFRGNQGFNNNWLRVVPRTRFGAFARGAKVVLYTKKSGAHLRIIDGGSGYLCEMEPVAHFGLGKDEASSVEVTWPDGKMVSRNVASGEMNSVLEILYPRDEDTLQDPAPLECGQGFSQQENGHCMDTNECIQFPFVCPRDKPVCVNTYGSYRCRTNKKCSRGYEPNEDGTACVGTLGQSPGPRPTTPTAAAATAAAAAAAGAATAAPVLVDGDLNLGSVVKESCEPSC
Method: For human CSF and human serum, immunoprecipitation using a monoclonal antibody purified from the culture supernatant of hybridomas of clones 1B4 and 15C2 was performed, and IB analysis by Wes was performed. For comparison, immunoprecipitation (IP) using an anti-hCrtac1 antibody (RD) and IB analysis using an anti-rat LOTUS antibody (ITM, 45-12C) were performed.
As a sample, CSF (300 μL) and serum (500 μL) were used per antibody. Each sample and protein G sepharose were mixed and rotated at 4° C. for 1 hour to remove contaminants that non-specifically bind to protein G from each sample in advance. Protein G solid phase-treated magnetic particles (60 μL, Veritas, Dynabeads (registered trademark) Protein G) were dispensed into 1.5-mL tubes, and washed twice with dilution buffer III (500 μL, 0.02% Tween (registered trademark) 20/PBS (pH 7.4)). Magnetic collection was performed to remove the supernatant, and each antibody (24 μg) and the above dilution buffer III (200 μL) were added to the magnetic particles. The tube was stirred at room temperature for 1 hour, and then collected to remove the supernatant. The magnetic particles were washed five times with the above dilution buffer III (300 μL), and then collected to remove supernatant. Each sample from which impurities were removed was added to the magnetic particles, and the tube was stirred at room temperature for 5 hours. […]

[1] = target: T2, recombinant Crtac1B fragment #7 (negative control) (human, UniProt Q9NQ79 28-606); assay: antigen immobilized ELISA, hybridoma culture supernatant, color development at 655 nm same as plate without antigen
T2 construct: also called fCrtac1B (1-606)
T2 sequence: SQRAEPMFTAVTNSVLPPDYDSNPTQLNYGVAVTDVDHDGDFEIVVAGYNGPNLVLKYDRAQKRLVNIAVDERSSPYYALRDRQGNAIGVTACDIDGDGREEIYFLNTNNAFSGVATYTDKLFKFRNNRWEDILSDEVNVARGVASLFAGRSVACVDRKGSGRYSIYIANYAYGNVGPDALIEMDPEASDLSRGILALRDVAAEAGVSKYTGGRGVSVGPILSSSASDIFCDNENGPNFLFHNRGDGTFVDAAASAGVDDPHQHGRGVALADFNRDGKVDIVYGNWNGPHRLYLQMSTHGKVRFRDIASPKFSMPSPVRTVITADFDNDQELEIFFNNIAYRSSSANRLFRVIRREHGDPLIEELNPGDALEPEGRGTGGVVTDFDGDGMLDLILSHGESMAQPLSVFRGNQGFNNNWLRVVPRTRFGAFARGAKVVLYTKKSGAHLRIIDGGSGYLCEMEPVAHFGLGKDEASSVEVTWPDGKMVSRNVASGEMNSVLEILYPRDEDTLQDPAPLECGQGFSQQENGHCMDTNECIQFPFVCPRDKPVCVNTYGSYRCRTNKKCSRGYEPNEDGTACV
Method: (§1) A positive antigen (50 μL) and a negative control (50 μL) were added to each well of a 96 well plate, respectively. Then, the plate was incubated at 4° C. overnight, and the positive antigen and the negative control were immobilized in the well to obtain an antigen immobilized plate. Each well was washed twice with a washing solution (250 μL, 0.05% Tween (registered trademark) 20/20 mM potassium phosphate buffer (pH 7.4), 150 mM NaCl). To each well was added a blocking buffer (250 μL, 5% skim milk/20 mM potassium phosphate buffer (pH 7.4), 150 mM NaCl), and blocked at room temperature for 90 minutes. Culture supernatant (50 μL) of each hybridoma selected by primary screening was added to each well, and the cells were incubated at 37° C. for 1 hour. Each well was washed three times with a washing solution (250 μL). The HRP-labeled anti-mouse IgG antibody (MBL, product number 330) was diluted 1:1,000 with dilution buffer II (1% skim milk/20 mM potassium phosphate buffer (pH 7.4), 150 mM NaCl). A solution (50 μL) of this labeled antibody was added to each well, and the well was incubated at 37° C. for 1 hour. Each well was washed five times with a washing solution (250 μL). Chemical chromogenic substrate solutions (Bio-Rad, TMB Peroxidase EIA Substrate Kit) were added to respective wells at 50 μL, and the plate was allowed to stand at room temperature under shading for 30 minutes. The plate was set in a microplate reader (Thermo Fisher Scientific, Varioskan (registered trademark) Flash), and the color development intensity at 655 nm was measured for each well.
(§2) Reactivity of the monoclonal antibody contained in the culture supernatant of the hybridomas of clones 1B4 and 15C2 to the antigen was confirmed by ELISA using the 7 recombinant Crtac1B fragments described above. A specific operation was the same as that of the antigen immobilized ELISA method of Example 1. For comparison, ELISA was performed in the same manner using a 96 well plate in which no antigen was immobilized.
(§3) In addition, as to these monoclonal antibodies, the color development intensity when the recombinant Crtac1B fragments of #6 and #7 were used was substantially the same as that when a plate without immobilizing the antigen was used.

[2] = target: T3, recombinant Crtac1B fragment #6 (human, UniProt Q9NQ79 28-606); assay: as above
T3 construct: also called fCrtac1B (1-607)
T3 sequence: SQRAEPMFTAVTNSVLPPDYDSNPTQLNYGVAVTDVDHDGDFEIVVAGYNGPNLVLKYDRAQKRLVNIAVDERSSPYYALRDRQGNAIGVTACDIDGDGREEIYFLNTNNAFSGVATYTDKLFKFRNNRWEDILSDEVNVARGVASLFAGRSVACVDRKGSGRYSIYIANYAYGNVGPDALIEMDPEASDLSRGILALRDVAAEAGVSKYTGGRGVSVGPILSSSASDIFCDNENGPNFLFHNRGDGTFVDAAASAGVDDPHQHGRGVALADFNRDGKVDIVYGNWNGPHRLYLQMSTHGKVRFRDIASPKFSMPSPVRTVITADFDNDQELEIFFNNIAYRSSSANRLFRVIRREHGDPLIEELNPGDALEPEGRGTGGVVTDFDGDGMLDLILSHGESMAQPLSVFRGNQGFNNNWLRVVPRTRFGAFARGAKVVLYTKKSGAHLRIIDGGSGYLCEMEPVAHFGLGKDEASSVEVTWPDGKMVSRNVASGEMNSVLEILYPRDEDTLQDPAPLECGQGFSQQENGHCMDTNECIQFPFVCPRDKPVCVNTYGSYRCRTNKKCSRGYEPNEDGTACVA
Method: as §1, §2, §3

Measured: binding result

B1: monoclonal antibody derived from the hybridoma of clone 1B4 (antibody, mouse IgG1, kappa, V domains shown)
VH: EVQLQQFGAELVKPGASVKISCKASGYTFTDYNMDWVKQSHGKSLEWIGDINPNYDSSSYNQKFKGKATLTVDKSSSTAYMELRSLTSEDTAVYYCTRSGGTYWGQGTLVTVSA
VL: DIQMNQSPSSLSASLGDTITITCHASQNINVWLSWYQQKPGNIPKLLIYKASNLHTGVPSRFSGSGSGTGFSLTISSLQPEDIATYYCQQAQSYPRTFGGGTKLEIKR
notes: It is kept apart because the two clones were tested separately; Mouse IgG1; Leader ranges were derived as for m1
no binding: human Crtac1A | [1] | [2]
